The data set concerns the molecule itself. As to the kind of experiment: AUC; sedimentation velocity (0.9, 1 and 1.6 mg/ml) and sedimentation equilibrium (0.6 or 1 mg/ml) at 20°C in buffer C (2M KCl, 10 mM Hepes, pH 7.0), absorbance at 280 nm; SEDFIT and SEDPHAT.

B1: Haloferax volcanii Hef protein (helicase-associated endonuclease fork-structure DNA), full length with a six-histidine tag (natural protein, UniProt D4GYC2 1-858, looked up)
chain: MSASEDVAYVDHPLLAPSFIERRLYQIRLAGTARDGHTLVCLPTGLGKTTVSLLVTAQRLHDVGGKSLFLAPTKPLVQQHADFYREALTVPDDEIVVFTGDVRPDDRAELWQEAQIVIATPQVIENDLIGNRISLRDVTHLTFDECHRASGDYAYVYIAERYHAAAENPLVTGMSASPGGDEEAILEVCENLGIVDVEVMTEEDADVSEYTHDTDVEWNRIQLPDEILEIRDALNEVITDRLEKLKQLGVTKSTKPDISQKKLNRMRAELQRLMNADKSEGYKGMSTHAEVMKLRRAVELVETQSVESVRRYFERQRNAARSSGASKASQRLVAEPKVREAMRKAESFDGLHPKFRKTRILLAETLGIQNGERVIVFTESRDTAEALTEFLSESFSVRRFVGQGDREGSDGMTQNEQQETLDKFRNGEFEVLVSTSVAEEGLDVPEVDLVLFFEPVPTAIRSIQRKGRTGRQADGRVVVLLAEDTRDEAYFWISRRREKTMQNELRDLKGAADDLEAELDPSQRDLSAFAGDDASSAGSAGSSTRNEGVDVASEGDANGASATASSASNGRTATAAATDSDGQSGLADFGPSDEALARADDGDDSHGEDADPADSGDDPASDAEGDEVDDSATVAAAGTDDEDTVEIVVDQRELDSNIARTLSKREDLTTRLETLAVGDYVLSDRVAVERKSVSDFLDTLTGGDRSIFEQIADLTRHYARPLLVIEGRGLYEERNIHPGAIRGALSSVAVDFNVSVLFTEDEDDTAELLATIATREQTDRERTVSVHGGKSAKTLDEQQEYVVSAIADIGPVTARTLLEAFGSVEAVMTANEEDLKEVRGVGQVTAERIREVVGSEYR
notes: Hef helicase/endonuclease of the XPF/MUS81/FANCM family, Haloferax volcanii; full-length protein; predicted monomeric molecular mass 93.95 kDa; hef amplified from plasmid pTA1097 and cloned into pTA963 (PciI-EcoRI); also called HvoHef; Hef holoprotein; source: H. volcanii (native host, strain lacking hef, tryptophan-induced), purified (Ni-NTA agarose, S-200 gel filtration)
Take B1: the “stoichiometry N” value is 2.

The values above are taken from paper PMC3905845, “Intracellular dynamics of archaeal FANCM homologue Hef in response to halted DNA replication” (Nucleic Acids Research, 2013).
